Measured values taken from patent US20110044911A1.

Biological target: receptors for CRF on murine pituitary tumor cell line AtT-20 (murine)
Experiment: cell-based or functional assay

CRF-conjugated dextran-coated and maleimide surface-modified magnetonanoparticles (peptide)
Production of c-AMP (nM): 2 fold
fold decrease in Production of c-AMP (nM): 10 fold
